Assay results published in US20080050374A1 (AMBRX, published 2008).

B1: pAcF-scFv-108-(S136) (scFv)
scFv: QVQLQQSGAELMKPGASVKISCKATGYTFSSYWIEWVKQRPGHGLEWIGEILPGSKKTNYNEKFKGKATFTADTSSNTAYMQFSSLTSEDSAVYYCARYYYRNDDYGMDYWGQGTSVTVSSGGGGSGGGGSGGGGXGGGGSEIHMTQTTSSLSASLGDRVTISCSASQDIRNYLNWYQQKPDGTVKLLIYYTSTLHSGVPSRFSGSGSGTDYSLTISNLEPEDIATYYCQQYSKIPYTFTGGTKLEIKRADAAEQKLISEEDLNSAVDHHHHHH
modifications: p-acetyl-phenylalanine (pAcF) in place of Ser136
notes: X stands for pAcF; also called Ser136pAcF; pAcF-scFv-(S136)
B2: scFv-108 Ser193pAcF (scFv)
scFv: QVQLQQSGAELMKPGASVKISCKATGYTFSSYWIEWVKQRPGHGLEWIGEILPGSKKTNYNEKFKGKATFTADTSSNTAYMQFSSLTSEDSAVYYCARYYYRNDDYGMDYWGQGTSVTVSSGGGGSGGGGSGGGGSGGGGSEIHMTQTTSSLSASLGDRVTISCSASQDIRNYLNWYQQKPDGTVKLLIYYTXTLHSGVPSRFSGSGSGTDYSLTISNLEPEDIATYYCQQYSKIPYTFTGGTKLEIKRADAAEQKLISEEDLNSAVDHHHHHH
modifications: p-acetyl-phenylalanine (pAcF) in place of Ser193
notes: X stands for pAcF
B3: scFv-108 Lys248pAcF (scFv)
scFv: QVQLQQSGAELMKPGASVKISCKATGYTFSSYWIEWVKQRPGHGLEWIGEILPGSKKTNYNEKFKGKATFTADTSSNTAYMQFSSLTSEDSAVYYCARYYYRNDDYGMDYWGQGTSVTVSSGGGGSGGGGSGGGGSGGGGSEIHMTQTTSSLSASLGDRVTISCSASQDIRNYLNWYQQKPDGTVKLLIYYTSTLHSGVPSRFSGSGSGTDYSLTISNLEPEDIATYYCQQYSKIPYTFTGGTKLEIXRADAAEQKLISEEDLNSAVDHHHHHH
modifications: p-acetyl-phenylalanine (pAcF) in place of Lys248
notes: X stands for pAcF
B4: scFv-108 His144pAcF (scFv)
scFv: QVQLQQSGAELMKPGASVKISCKATGYTFSSYWIEWVKQRPGHGLEWIGEILPGSKKTNYNEKFKGKATFTADTSSNTAYMQFSSLTSEDSAVYYCARYYYRNDDYGMDYWGQGTSVTVSSGGGGSGGGGSGGGGSGGGGSEIXMTQTTSSLSASLGDRVTISCSASQDIRNYLNWYQQKPDGTVKLLIYYTSTLHSGVPSRFSGSGSGTDYSLTISNLEPEDIATYYCQQYSKIPYTFTGGTKLEIKRADAAEQKLISEEDLNSAVDHHHHHH
modifications: p-acetyl-phenylalanine (pAcF) in place of His144
notes: X stands for pAcF
B5: pAcF-scFv-108-(S131) conjugated to 5K PEG (scFv)
scFv: QVQLQQSGAELMKPGASVKISCKATGYTFSSYWIEWVKQRPGHGLEWIGEILPGSKKTNYNEKFKGKATFTADTSSNTAYMQFSSLTSEDSAVYYCARYYYRNDDYGMDYWGQGTSVTVSSGGGGSGGGGXGGGGSGGGGSEIHMTQTTSSLSASLGDRVTISCSASQDIRNYLNWYQQKPDGTVKLLIYYTSTLHSGVPSRFSGSGSGTDYSLTISNLEPEDIATYYCQQYSKIPYTFTGGTKLEIKRADAAEQKLISEEDLNSAVDHHHHHH
modifications: p-acetyl-phenylalanine (pAcF) in place of Ser131, conjugated to mono-functional hydroxylamine 5K PEG
notes: also called Ser131pAcF-5K PEG
B6: scFv-108 Tyr190pAcF (scFv)
scFv: QVQLQQSGAELMKPGASVKISCKATGYTFSSYWIEWVKQRPGHGLEWIGEILPGSKKTNYNEKFKGKATFTADTSSNTAYMQFSSLTSEDSAVYYCARYYYRNDDYGMDYWGQGTSVTVSSGGGGSGGGGSGGGGSGGGGSEIHMTQTTSSLSASLGDRVTISCSASQDIRNYLNWYQQKPDGTVKLLIXYTSTLHSGVPSRFSGSGSGTDYSLTISNLEPEDIATYYCQQYSKIPYTFTGGTKLEIKRADAAEQKLISEEDLNSAVDHHHHHH
modifications: p-acetyl-phenylalanine (pAcF) in place of Tyr190
notes: X stands for pAcF
B7: pAcF-scFv-108-(S131) (scFv)
scFv: QVQLQQSGAELMKPGASVKISCKATGYTFSSYWIEWVKQRPGHGLEWIGEILPGSKKTNYNEKFKGKATFTADTSSNTAYMQFSSLTSEDSAVYYCARYYYRNDDYGMDYWGQGTSVTVSSGGGGSGGGGXGGGGSGGGGSEIHMTQTTSSLSASLGDRVTISCSASQDIRNYLNWYQQKPDGTVKLLIYYTSTLHSGVPSRFSGSGSGTDYSLTISNLEPEDIATYYCQQYSKIPYTFTGGTKLEIKRADAAEQKLISEEDLNSAVDHHHHHH
modifications: p-acetyl-phenylalanine (pAcF) in place of Ser131
notes: S131 is the second serine of the GlySer linker; X stands for pAcF; also called Ser131pAcF; S131Am
B8: scFv-108 wild type (periplasmic, VH-(GGGGS)4-VL-myc-6xHis) (scFv)
scFv: QVQLQQSGAELMKPGASVKISCKATGYTFSSYWIEWVKQRPGHGLEWIGEILPGSKKTNYNEKFKGKATFTADTSSNTAYMQFSSLTSEDSAVYYCARYYYRNDDYGMDYWGQGTSVTVSSGGGGSGGGGSGGGGSGGGGSEIHMTQTTSSLSASLGDRVTISCSASQDIRNYLNWYQQKPDGTVKLLIYYTSTLHSGVPSRFSGSGSGTDYSLTISNLEPEDIATYYCQQYSKIPYTFTGGTKLEIKRADAAEQKLISEEDLNSAVDHHHHHH
notes: also called WT scFv
B9: pAcF-scFv-108-(L156) conjugated to 5K PEG (scFv)
scFv: QVQLQQSGAELMKPGASVKISCKATGYTFSSYWIEWVKQRPGHGLEWIGEILPGSKKTNYNEKFKGKATFTADTSSNTAYMQFSSLTSEDSAVYYCARYYYRNDDYGMDYWGQGTSVTVSSGGGGSGGGGSGGGGSGGGGSEIHMTQTTSSLSASXGDRVTISCSASQDIRNYLNWYQQKPDGTVKLLIYYTSTLHSGVPSRFSGSGSGTDYSLTISNLEPEDIATYYCQQYSKIPYTFTGGTKLEIKRADAAEQKLISEEDLNSAVDHHHHHH
modifications: p-acetyl-phenylalanine (pAcF) in place of Leu156, conjugated to mono-functional hydroxylamine 5K PEG
notes: also called Leu156pAcF-5K PEG
B10: pAcF-scFv-108-(L156) (scFv)
scFv: QVQLQQSGAELMKPGASVKISCKATGYTFSSYWIEWVKQRPGHGLEWIGEILPGSKKTNYNEKFKGKATFTADTSSNTAYMQFSSLTSEDSAVYYCARYYYRNDDYGMDYWGQGTSVTVSSGGGGSGGGGSGGGGSGGGGSEIHMTQTTSSLSASXGDRVTISCSASQDIRNYLNWYQQKPDGTVKLLIYYTSTLHSGVPSRFSGSGSGTDYSLTISNLEPEDIATYYCQQYSKIPYTFTGGTKLEIKRADAAEQKLISEEDLNSAVDHHHHHH
modifications: p-acetyl-phenylalanine (pAcF) in place of Leu156
notes: L156 lies in the VL chain; X stands for pAcF; also called Leu156pAcF
B11: pAcF-scFv-108-(S136) conjugated to 5K PEG (scFv)
scFv: QVQLQQSGAELMKPGASVKISCKATGYTFSSYWIEWVKQRPGHGLEWIGEILPGSKKTNYNEKFKGKATFTADTSSNTAYMQFSSLTSEDSAVYYCARYYYRNDDYGMDYWGQGTSVTVSSGGGGSGGGGSGGGGXGGGGSEIHMTQTTSSLSASLGDRVTISCSASQDIRNYLNWYQQKPDGTVKLLIYYTSTLHSGVPSRFSGSGSGTDYSLTISNLEPEDIATYYCQQYSKIPYTFTGGTKLEIKRADAAEQKLISEEDLNSAVDHHHHHH
modifications: p-acetyl-phenylalanine (pAcF) in place of Ser136, conjugated to mono-functional hydroxylamine 5K PEG
notes: also called Ser136pAcF-5K PEG
B12: scFv-108 Ser259pAcF (scFv)
scFv: QVQLQQSGAELMKPGASVKISCKATGYTFSSYWIEWVKQRPGHGLEWIGEILPGSKKTNYNEKFKGKATFTADTSSNTAYMQFSSLTSEDSAVYYCARYYYRNDDYGMDYWGQGTSVTVSSGGGGSGGGGSGGGGSGGGGSEIHMTQTTSSLSASLGDRVTISCSASQDIRNYLNWYQQKPDGTVKLLIYYTSTLHSGVPSRFSGSGSGTDYSLTISNLEPEDIATYYCQQYSKIPYTFTGGTKLEIKRADAAEQKLIXEEDLNSAVDHHHHHH
modifications: p-acetyl-phenylalanine (pAcF) in place of Ser259
notes: X stands for pAcF
B13: Fab-108 wild type (Fab)
light: TMELEIHMTQTTSSLSASLGDRVTISCSASQDIRNYLNWYQQKPDGTVKLLIYYTSTLHSGVPSRFSGSGSGTDYSLTISNLEPEDIATYYCQQYSKIPYTFTGGTKLEIKRADAAKLEIKRTVAAPSVFIFPPSDEQLKSGTASVVCLLNNFYPREAKVQWKVDNALQSGNSQESVTEQDSKDSTYSLSSTLTLSKADYEKHKVYACEVTHQGLSSPVTKSFNRGEC
heavy: QVQLLEQVQLQQSGAELMKPGASVKISCKATGYTFSSYWIEWVKQRPGHGLEWIGEILPGSKKTNYNEKFKGKATFTADTSSNTAYMQFSSLTSEDSAVYYCARYYYRNDDYGMDYWGQGTSVTVSSAGPSVFPLAPSSKSTSGGTAALGCLVKDYFPEPVTVSWNSGALTSGVHTFPAVLQSSGLYSLSSVVTVPSSSLGTQTYICNVNHKPSNTKVDKKVEPKSCDKHHHHHH
notes: they may include leaders; also called WT Fab; Fab108 WT

molecular target: T1, EGF receptor (on A431 cells) (UniProt P00533 25-1210, limits assumed); test: competition flow cytometry on A431 cells against mAb-108 (7.5 nM)
T1 construct: whole, on cells; also called EGF receptors
Method: (§1) Unbound scFv proteins were removed by washing following centrifugation (repeated 2-3 times). […] After two washes, the cells were incubated with an APC-labeled (allophycocyanin) anti-mouse antibody (10 ug/ml) for 30 minutes on ice. After washing the cells two times to remove the secondary antibody, the cells were re-suspended in FACS buffer supplemented with propidium iodine (0.5 ug/ml), and analyzed by flow cytometry. […] Fab binding was detected using an anti-His antibody followed by an APC-labeled anti-mouse secondary antibody.
(§2) Cells were incubated with the scFv proteins at various concentrations after washing to remove unbound scFv's, and the cells were treated with the mAb108 as described above. All proteins were expressed in the periplasm. Table 11 summarizes the binding of the modified scFv's (pAcF and pAcF with PEG) relative to the wild type scFv: […]

In order of rising “IC50 relative to wild type scFv” value:
1. B12  0.5 x
2. B8  1 x
3. B7  1.3 x
4. B1  1.6 x
5. B2  1.8 x
6. B10  1.8 x
7. B3  2.1 x
8. B6  2.1 x
9. B4  2.6 x
10. B9  2.9 x
11. B5  5 x
12. B11  6.3 x

With B8 the IC50 was 8.1 nM.

molecular target: T1, EGF receptor (on A431 cells); test: flow cytometry on A431 cells; Fab detected with anti-His antibody and APC-labeled anti-mouse antibody
Method: as §1
PEGylation of the Fab fragments results in a minimal decrease in the affinity of the fragments to the EGF receptors. Binding conditions were as described previously.

For B13, the EC50 was 4 nM.

With B13 the “EC50 relative to wild type Fab” value was 1 x.

molecular target: T1, EGF receptor (on A431 cells); test: Flow cytometry competition on A431 cells expressing EGF receptors: cells incubated with the scFv at varied concentration and washed, then mAb108 (competitor, 7.5 nM) detected with APC-labeled anti-mouse antibody; y axis Median
Method: as §1, §2

In order of rising IC50:
1. B1  13.1 nM
2. B11  51 nM
